Laboratory results as given in patent US8147838B2, “Peptide” (priority 2005, dated 2012).

Assays:
Settings in all cases: percent of positive control peptide binding; peptide at 1.11×10^−5M
[1] = target: MHC class I allele A*0201 (A2) (Homo sapiens, UniProt P04439, D140Y/D185E/D98H/E176V/E277Q/G131W/G231S/I119V/I121R/I166T/I218V/L300P/L318F/N151K/N90K/P208A/P217A/Q86G/Q94H/R138H/R169H/T345S); assay: iTopia peptide binding assay, A*0201
In short: (§1)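 iTopia plates coated with the respective MHC class I allele; 9-mer peptides bound at 1.11×10^−5M under standardized optimal conditions alongside an allele-specific control peptide at the same concentration. Total fluorescence read after antibody removal, in duplicate; binding given as percent of positive control peptide binding.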

[2] = target: MHC class I allele A*0301 (A3) (Homo sapiens, UniProt P04439); assay: iTopia peptide binding assay, A*0301
In short: as §1

[3] = target: MHC class I allele B*0702 (B7) (Homo sapiens, UniProt P01889); assay: iTopia peptide binding assay, B*0702
In short: as §1

[4] = target: MHC class I allele A*0101 (A1) (Homo sapiens, UniProt P04439, A114D/A174V/A182V/D101N/D185E/E176A/E190D/L180R/Q94H/R68K/S129P/T187R/V100A/V91M/W191G); assay: iTopia peptide binding assay, A*0101
In short: as §1

Sequence | Peptide binding, MHC Class I Molecule A*0201 [1] | Peptide binding, MHC Class I Molecule A*0301 [2] | Peptide binding, MHC Class I Molecule B*0702 [3] | Peptide binding, MHC Class I Molecule A*0101 [4]
LKETEVVQG [Peptide 155] | 3 % of control | 4 % of control | 3 % of control | 0 % of control
GKDRLTCAY [Peptide 159] | 6 % of control | 6 % of control | 4 % of control | 3 % of control
QPPLPDQCP [Peptide 28] | 5 % of control | 1 % of control | 3 % of control | 6 % of control
ASAVSAQPP [Peptide 25] | 5 % of control | 0 % of control | 0 % of control | 2 % of control
LPSLRQLDL [Peptide 71] | 27 % of control | 0 % of control | 82 % of control | 0 % of control
YRYEINADP [Peptide 201] | 0 % of control | 1 % of control | 3 % of control | 0 % of control
SADLDCDPI [Peptide 170] | 4 % of control | 4 % of control | 3 % of control | 0 % of control
SFRNLTHLE [Peptide 127] | 1 % of control | 1 % of control | 0 % of control | 1 % of control
HNPLADLSP [Peptide 76] | 7 % of control | 3 % of control | 5 % of control | 5 % of control
PALCECSEA [Peptide 32] | 19 % of control | 0 % of control | 0 % of control | 4 % of control
SGSNASVSA [Peptide 82] | 15 % of control | 3 % of control | 11 % of control | 5 % of control
PHIRVFLDN [Peptide 143] | 2 % of control | 3 % of control | 10 % of control | 0 % of control
LHLEDNALK [Peptide 132] | 4 % of control | 5 % of control | 0 % of control | 4 % of control
KGIKKWMHN [Peptide 190] | 14 % of control | 3 % of control | 6 % of control | 3 % of control
SLRQLDLSH [Peptide 72] | 6 % of control | 11 % of control | 13 % of control | 0 % of control
AALLAGRAL [Peptide 101] | 38 % of control | 0 % of control | 59 % of control | 1 % of control

Sequence | Peptide binding, MHC Class I Molecule A*0201 [1] | Peptide binding, MHC Class I Molecule A*0301 [2] | Peptide binding, MHC Class I Molecule B*0702 [3] | Peptide binding, MHC Class I Molecule A*0101 [4]
SAQPPLPDQ [Peptide 27] | 13 % of control | 0 % of control | 3 % of control | 2 % of control
ADMVTWLKE [Peptide 152] | 6 % of control | 4 % of control | 8 % of control | 0 % of control
PAGAFARRP [Peptide 54] | 4 % of control | 3 % of control | 7 % of control | 2 % of control
TDLPAYVRN [Peptide 44] | 3 % of control | 1 % of control | 2 % of control | 7 % of control
RRLELASNH [Peptide 107] | 5 % of control | 3 % of control | 3 % of control | 0 % of control
CAYPEKMRN [Peptide 162] | 11 % of control | 4 % of control | 3 % of control | 0 % of control
ERQNRSFEG [Peptide 95] | 1 % of control | 1 % of control | 1 % of control | 0 % of control
RDVLAQLPS [Peptide 114] | 15 % of control | 3 % of control | 4 % of control | 1 % of control
NNSLVSLTY [Peptide 122] | 12 % of control | 4 % of control | 0 % of control | 8 % of control
LELNSADLD [Peptide 168] | 3 % of control | 5 % of control | 3 % of control | 0 % of control
LNSADLDCD [Peptide 169] | 0 % of control | 3 % of control | 0 % of control | 0 % of control
LNLSGSRLD [Peptide 62] | 7 % of control | 2 % of control | 7 % of control | 2 % of control
QCPALCECS [Peptide 31] | 2 % of control | 0 % of control | 0 % of control | 3 % of control
NNPWVCDCH [Peptide 147] | 0 % of control | 16 % of control | 4 % of control | 0 % of control
VSAPSPLVE [Peptide 85] | 13 % of control | 7 % of control | 3 % of control | 3 % of control
